Substitutions are numbered along the chain they refer to. Names may count otherwise. Values belong to the binder of their own block, whether it stands above or below them.
Assays:
[1] = target: T1, human vascular endothelial growth factor receptor-2 Fc chimera (KDR-Fc) (human, UniProt P35968 20-764); experiment: BIAcore, KDR-Fc immobilised on CM5 chip
T1 construct: range 1-764; also called human VEGF-R2-Fc; not shown: human IgG1 Fc
Procedure: (§1) The binding kinetics of fibronectin-based scaffold proteins binding proteins to the target was measured using BIAcore 2000 biosensor (Pharmacia Biosensor). Human and mouse VEGF-R2-Fc fusions were immobilized onto a CM5 sensor chip and soluble binding proteins were injected at concentrations ranging from 0 to 100 nM in buffer O (10 mM HEPES, 150 mM NaCl, 0.005% Tween 20, pH 7.4). Sensorgrams were obtained at each concentration and were evaluated using a program, BIA Evaluation 2.0 (BIAcore), to determine the rate constants […] The affinity constant, KD was calculated from the ratio of rate constants koff/kₒₙ.

[2] = target: VEGFR-2 (KDR) of HUVEC cells (human, UniProt P35968 20-1356); experiment: cell-based or functional assay
[3] = target: T2, mouse vascular endothelial growth factor receptor-2 Fc chimera (Flk-1-Fc) (mouse, UniProt P35918 20-762); experiment: BIAcore, Flk-1-Fc immobilised on CM5 chip
T2 construct: bought from R&D Systems; also called mouse VEGF-R2-Fc; Fc part of the bought chimera not given, not described
T2 sequence (P35918 20-762, change not shown): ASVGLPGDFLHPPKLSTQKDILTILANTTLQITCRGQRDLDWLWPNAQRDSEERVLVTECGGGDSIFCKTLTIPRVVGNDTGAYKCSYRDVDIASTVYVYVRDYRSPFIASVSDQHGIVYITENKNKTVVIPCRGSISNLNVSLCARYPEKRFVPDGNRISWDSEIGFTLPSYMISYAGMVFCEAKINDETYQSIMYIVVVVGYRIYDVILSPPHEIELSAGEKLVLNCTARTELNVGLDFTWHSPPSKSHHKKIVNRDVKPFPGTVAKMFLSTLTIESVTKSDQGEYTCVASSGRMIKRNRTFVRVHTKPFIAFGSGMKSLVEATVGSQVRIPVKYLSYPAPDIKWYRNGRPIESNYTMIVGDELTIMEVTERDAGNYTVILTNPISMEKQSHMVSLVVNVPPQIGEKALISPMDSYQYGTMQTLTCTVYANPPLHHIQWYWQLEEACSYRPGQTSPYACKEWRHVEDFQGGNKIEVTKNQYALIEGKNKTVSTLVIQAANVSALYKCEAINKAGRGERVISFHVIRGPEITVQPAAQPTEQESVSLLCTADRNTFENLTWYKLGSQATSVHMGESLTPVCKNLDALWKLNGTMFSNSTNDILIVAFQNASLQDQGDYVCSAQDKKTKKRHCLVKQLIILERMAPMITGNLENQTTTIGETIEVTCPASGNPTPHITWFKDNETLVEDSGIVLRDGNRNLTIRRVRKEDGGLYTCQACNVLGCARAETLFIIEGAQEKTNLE
Procedure: as §1

[4] = target: human KDR/EpoR fusion (phKE8) on Ba/F3-KDR cells (human, UniProt P35968 20-764; P19235 251-508, limits assumed); experiment: cell-based or functional assay
[5] = target: T3, flk-1/EpoR fusion (pmKE2) on CHO-Flk or Ba/F3-Flk cells (mouse; human, UniProt P35918 20-762; P19235 251-508, limits assumed); experiment: cell-based or functional assay
T3 sequence (P35918 other isoform, or with tags, fused parts or gaps limits assumed, form in doubt): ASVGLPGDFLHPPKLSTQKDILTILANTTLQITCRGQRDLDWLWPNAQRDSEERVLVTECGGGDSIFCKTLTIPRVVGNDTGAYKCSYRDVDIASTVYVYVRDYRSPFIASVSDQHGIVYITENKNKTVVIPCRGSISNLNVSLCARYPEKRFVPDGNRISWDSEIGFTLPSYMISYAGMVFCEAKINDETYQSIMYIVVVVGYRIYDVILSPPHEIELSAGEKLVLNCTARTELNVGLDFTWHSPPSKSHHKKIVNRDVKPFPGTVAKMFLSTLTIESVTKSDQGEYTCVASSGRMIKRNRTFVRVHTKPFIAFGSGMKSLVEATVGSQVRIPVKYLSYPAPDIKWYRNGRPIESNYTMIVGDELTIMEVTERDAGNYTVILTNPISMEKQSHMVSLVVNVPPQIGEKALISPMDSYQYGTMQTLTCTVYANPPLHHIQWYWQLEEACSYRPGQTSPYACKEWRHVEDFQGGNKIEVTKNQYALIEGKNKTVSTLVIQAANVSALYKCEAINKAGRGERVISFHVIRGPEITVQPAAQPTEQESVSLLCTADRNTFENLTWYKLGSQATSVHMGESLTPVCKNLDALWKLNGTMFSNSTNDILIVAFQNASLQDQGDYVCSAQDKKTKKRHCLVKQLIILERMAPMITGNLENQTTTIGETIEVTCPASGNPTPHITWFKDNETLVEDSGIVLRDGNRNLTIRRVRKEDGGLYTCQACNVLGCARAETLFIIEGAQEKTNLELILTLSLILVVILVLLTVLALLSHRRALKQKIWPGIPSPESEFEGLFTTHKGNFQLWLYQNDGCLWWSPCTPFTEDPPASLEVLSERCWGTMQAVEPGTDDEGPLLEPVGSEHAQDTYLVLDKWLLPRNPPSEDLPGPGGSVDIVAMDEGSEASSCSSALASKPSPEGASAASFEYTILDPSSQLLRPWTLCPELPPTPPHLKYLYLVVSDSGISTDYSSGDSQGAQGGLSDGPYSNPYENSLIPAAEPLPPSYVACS

[6] = target: T3, flk-1/EpoR fusion (pmKE2) on CHO-Flk or …; experiment: flow cytometry on CHO-Flk cells, anti-His6 detection
[7] = target: T4, full-length human KDR on CHO-KDR cells (human, UniProt P35968 20-1356); experiment: flow cytometry on CHO-KDR cells, anti-His6 detection
T4 construct: whole, on cells; stably transfected CHO-K1 cells
Procedure: The functionality of KDR and Flk-1 binding molecules in a cell culture model system was evaluated with E. coli produced binding molecules.
Binding of fibronectin-based scaffold protein to cell-surface KDR and Flk-1 was analyzed simultaneously on VEGF-R2-expressing and control cells by flow cytometry. CHO-pcDNA3 cells (control) were released from their dishes with trypsin-EDTA, washed in Dulbecco's PBS without calcium and magnesium (D-PBS⁻; Invitrogen), and stained for 30 minutes at 37° C. with 1.5 μM CMTMR (5-(and-6)-(((4-chloromethyl)benzoyl)amino)-tetramethylrhodamine) (Molecular Probes). The cells were washed in D-PBS⁻ and incubated for a further 30 minutes at 37° C., and then resuspended in blocking buffer (D-PBS710% fetal bovine serum) on ice. CHO-KDR or CHO-Flk cells were treated identically except that CMTMR was omitted. 75,000 of CMTMR-stained CHO-pcDNA3 cells were mixed with an equal number of unstained CHO-KDR or CHO-Flk cells in each well of a V-bottom 96-well plate. All antibodies and fibronectin-based scaffold proteins were diluted in 25 μl/well of blocking buffer, and each treatment was conducted for 1 hour at 4° C. Cell mixtures were stained with His₆-tagged fibronectin-based scaffold proteins, washed twice with cold D-PBS⁻, and then treated with 2.5 μg/ml anti-His₆ MAb (R&D Systems), washed, and stained with 4 μg/ml Alexa Fluor 488-conjugated anti-mouse antibody (Molecular Probes). For cells treated with an anti-KDR mouse monoclonal antibody (Accurate Chemical, Westbury, N.Y.) or an anti-flk-1 goat polyclonal antibody (R&D Systems), the anti-His₆ step was omitted, and antibody binding was detected with the species-appropriate Alexa Fluor 488 conjugated secondary antibody (Molecular Probes). Following staining, cells were resuspended in 200 μl/well D-PBS⁻/1% FBS/1 μg/ml 7-aminoactinomycin D (7-AAD; Molecular Probes) and analyzed by flow cytometry on a FACSCalibur (Becton Dickinson, San Jose, Calif.) equipped with a […].

[8] = target: T5, human vascular endothelial growth factor receptor-2 Fc chimera (KDR-Fc) (human, UniProt P35968 20-764); experiment: BIAcore, 20 nM KDR-Fc over immobilized VEGF165 in the presence of the soluble binder; blocked ligand VEGF165
T5 construct: range 1-764; also called human VEGF-R2-Fc; hKDR; not shown: human IgG1 Fc
Procedure: For inhibition experiments, human VEGF₁₆₅ was immobilized on a surface of CM-5 chip and KDR-Fc was injected at a concentration of 20 nM in the presence of different concentrations of soluble binding proteins ranging from 0 to 100 nM. IC₅₀ was determined at a concentration when only 50% of KDR-Fc binding to the chip was observed.

[9] = target: mouse vascular endothelial growth factor receptor-2 Fc chimera (Flk-1-Fc) (mouse) (UniProt P35918); experiment: radioactive equilibrium binding
Sequence of mouse vascular endothelial growth factor receptor-2 Fc chimera (Flk-1-Fc) (mouse) (P35918 20-762, change not shown): as the sequence (P35918 20-762, change not shown) above

[10] = target: T2, mouse vascular endothelial growth …; experiment: radioactive equilibrium binding assay, 1 nM Flk-1-Fc, percent bound, average of 3 experiments

Kd [1]: 13 nM | koff [1]: 0.00034 s⁻¹ | kon [1]: 30000 M⁻¹ s⁻¹
B2: VR28, E. coli-expressed, His6 (designed binder)
chain: VSDVPRDLEVVAATPTSLLISWRHPHFPTRYYRITYGETGGNSPVQEFTVPLQPPTATISGLKPGVDYTITGYAVTVAQNDHELITPISINYRTEIDKPSQHHHHHH
notes: soluble E. coli form; N-terminal Met not described

binding result [10]: no binding (tested: 1 nM Flk-1-Fc)
B11: K9 (designed binder)
chain: EVVAATPTSLLISWRHPHFPTRYYRITYGETGGNSPVQEFTVPLQPPTATISGLKPGVDYTITGYAVTFGLYGKELLIPISINYRT
notes: Del 1-8; in vitro translated, Flag tag

binding result [10]: no binding (tested: 1 nM Flk-1-Fc)
B12: K10 (designed binder)
chain: B11 chain with F69T, L71P, Y72N, G73D, K74R, E75L, L77F, I78V
notes: as for B11

binding result [10]: no binding (tested: 1 nM Flk-1-Fc)
B13: K6 (designed binder)
chain: B11 chain with F69D, L71K, Y72D, K74R, E75V, I78T
notes: as for B11

binding result [10]: no binding (tested: 1 nM Flk-1-Fc)
B14: K12 (designed binder)
chain: B11 chain with F69D, G70V, L71Y, Y72N, G73D, K74H, L76I, L77K, I78T
notes: as for B11

binding result [10]: no binding (tested: 1 nM Flk-1-Fc)
B15: K1 (designed binder)
chain: B11 chain with F69M, K74H, I78T
notes: as for B11

binding result [10]: no binding (tested: 1 nM Flk-1-Fc)
B16: K15 (designed binder)
chain: B11 chain with F69E, G70V, L71H, Y72H, G73D, K74R, L76I, L77K, I78T
notes: as for B11

binding result [10]: no binding (tested: 1 nM Flk-1-Fc)
B17: K13 (designed binder)
chain: B11 chain with F69L, G70A, Y72K, K74H, I78T
notes: as for B11

binding result [10]: no binding (tested: 1 nM Flk-1-Fc)
B18: K14 (designed binder)
chain: B11 chain with F69R, G70E, L71E, Y72N, G73D, K74H
notes: as for B11

Continued, binder first:

B1: M5FL, E. coli-expressed, His6 (designed binder)
chain: B2 chain with T56L, G72V, V77K, A78E, Q79R, D81G, H82R, I85F
notes: soluble E. coli form with Ser100
Kd [1]: 0.89 nM | koff [1]: 9.2e-05 s⁻¹ | kon [1]: 100000 M⁻¹ s⁻¹ | Inhibition of VEGF-induced proliferation of HUVEC cells (IC50, nM) [2]: 8.5 nM | Kd [3]: 2.1 nM | koff [3]: 0.000582 s⁻¹ | kon [3]: 280000 M⁻¹ s⁻¹ | Inhibition of VEGF-induced proliferation, Ba/F3-KDR (IC50, nM) [4]: 3.9 nM | Inhibition of VEGF-induced proliferation, Ba/F3-Flk (IC50, nM) [5]: 5.1 nM

B3: E19, E. coli-expressed, His6 (designed binder)
chain: EVVAATPTSLLISWRHPHFPTRYYRITYGETGGNSPVQEFTVPLQPPTATISGLKPGVDYTITGYAVTVERNGRHLMTPISINYRTEIDKPSQHHHHHH
notes: soluble E. coli form; N-terminal residues added for expression not described
Kd [1]: 0.06 nM | koff [1]: 1.7e-05 s⁻¹ | kon [1]: 300000 M⁻¹ s⁻¹ | Inhibition of VEGF-induced proliferation of HUVEC cells (IC50, nM) [2]: 11.8 nM | EC50 [6]: 5.3 nM | EC50 [7]: 7.6 nM | Kd [3]: 0.34 nM | koff [3]: 0.000223 s⁻¹ | kon [3]: 660000 M⁻¹ s⁻¹ | Inhibition of VEGF-induced proliferation, Ba/F3-KDR (IC50, nM) [4]: 12.3 nM | Inhibition of VEGF-induced proliferation, Ba/F3-Flk (IC50, nM) [5]: 5.8 nM

B4: E18, E. coli-expressed, His6 (designed binder)
chain: B3 chain with H75E, M77N
notes: as for B3
Kd [1]: 0.46 nM | koff [1]: 0.000121 s⁻¹ | kon [1]: 260000 M⁻¹ s⁻¹ | Inhibition of VEGF-induced proliferation of HUVEC cells (IC50, nM) [2]: 12.8 nM | EC50 [6]: 0.9 nM | EC50 [7]: 4.2 nM | Kd [3]: 0.33 nM | koff [3]: 0.000195 s⁻¹ | kon [3]: 600000 M⁻¹ s⁻¹ | Inhibition of VEGF-induced proliferation, Ba/F3-KDR (IC50, nM) [4]: 5.4 nM | Inhibition of VEGF-induced proliferation, Ba/F3-Flk (IC50, nM) [5]: 2.4 nM

B5: E29, E. coli-expressed, His6 (designed binder)
chain: B3 chain with H75V
notes: as for B3
Kd [1]: 0.19 nM | koff [1]: 7e-05 s⁻¹ | kon [1]: 360000 M⁻¹ s⁻¹ | Inhibition of VEGF-induced proliferation of HUVEC cells (IC50, nM) [2]: 8.4 nM | EC50 [6]: 0.6 nM | EC50 [7]: 2.3 nM | Kd [3]: 0.37 nM | koff [3]: 0.000288 s⁻¹ | kon [3]: 790000 M⁻¹ s⁻¹ | Inhibition of VEGF-induced proliferation, Ba/F3-KDR (IC50, nM) [4]: 10 nM | Inhibition of VEGF-induced proliferation, Ba/F3-Flk (IC50, nM) [5]: 4.7 nM

B6: E6, E. coli-expressed, His6 (designed binder)
chain: B3 chain with V69D, E70G, R71W, H75L, M77S, T78I
notes: as for B3
Kd [1]: 0.08 nM | koff [1]: 6.7e-05 s⁻¹ | kon [1]: 890000 M⁻¹ s⁻¹ | Kd [3]: 2.02 nM | koff [3]: 0.00136 s⁻¹ | kon [3]: 670000 M⁻¹ s⁻¹

B7: VR28 (designed binder)
chain: VSDVPRDLEVVAATPTSLLISWRHPHFPTRYYRITYGETGGNSPVQEFTVPLQPPTATISGLKPGVDYTITGYAVTVAQNDHELITPISINYRT
notes: 10Fn3 variant, WT N-terminus; also called VR28 (I69T)
IC50 (read off the curve) [8]: ~20 nM

B8: EGE11 (FG loop …) (designed binder)
chain: B11 chain with F69M, L71K, Y72N, G73D, K74R, I78T
Binding to 1 nM Flk-1, % [9]: 1%

B9: F6 (designed binder)
chain: B11 chain with F69V, G70E, L71Q, Y72N, K74R, E75V, L77M, I78T
Binding to 1 nM Flk-1, % [9]: 2%

B10: F10 (Table 2) (designed binder)
chain: B11 chain with F69M, G70A, L71P, Y72N, K74R, I78T
Binding to 1 nM Flk-1, % [9]: 1%

Reference: patent publication US20100310549A1 (Bristol-Myers Squibb, published 2010)
